Measured values from PMC8225904.

Target: mAb X’ (E262K sequence variant containing mAb X)
Assay: ELISA; plates coated with serially diluted mAb, constant amount of C1q added, detected with biotinylated anti-C1q antibody and HRP-streptavidin; relative binding by parallel line analysis against mAb X

relative binding against mAb X: 0.95
Substance: C1q protein (complex)
